Assay results as given in the Human Domainome abundance scans (Beltran et al. 2025).
± gives the uncertainty stated by the source.

B1: Histone-lysine N-methyltransferase 2A, residues 1148 to 1194; numbered along this chain, Q03164 (parent)
chain: KGRRSRRCGQCPGCQVPEDCGVCTNCLDKPKFGGRNIKKQCCKMRKC
B2: POU domain, class 3, transcription factor 3, residues 320 to 388; numbered along this chain, P20264 (parent)
chain: DDLEQFAKQFKQRRIKLGFTQADVGLALGTLYGNVFSQTTICRFEALQLSFKNMCKLKPLLNKWLEEAD

Variants of: B1
Assay: abundance fitness (aPCA) (normalised: wild type 0, dead -1); higher = more abundant; growth selection in yeast, the domain comes from the species named
Settings: Homo sapiens

Abundance fitness of substitutions, site by site:
Q15: F -0.54 ± 0.13; V -0.25 ± 0.089; W -0.468 ± 0.11; L -0.049 ± 0.081; T -0.244 ± 0.1; R -0.19 ± 0.093; I -0.185 ± 0.16; C -0.37 ± 0.11; A -0.112 ± 0.089; P -0.838 ± 0.14; Y -0.727 ± 0.15; D -0.463 ± 0.16; G -0.384 ± 0.088; H -0.355 ± 0.18; N -0.392 ± 0.15; S -0.313 ± 0.085; E -0.103 ± 0.12; M 0.058 ± 0.11
V16: K 0.103 ± 0.13; Q 0.223 ± 0.1; T 0.173 ± 0.11; N 0.146 ± 0.18; M 0.159 ± 0.11; C -0.468 ± 0.15; A -0.278 ± 0.1; L 0.205 ± 0.077; E -0.522 ± 0.11; I -0.066 ± 0.14; D -0.783 ± 0.17; P -0.414 ± 0.12; H -0.3 ± 0.15; R 0.196 ± 0.08; G -0.705 ± 0.1; S -0.168 ± 0.087
C8: Y -0.944 ± 0.11; W -0.863 ± 0.12; V -0.691 ± 0.095; G -0.457 ± 0.084; P -0.613 ± 0.15; E -0.506 ± 0.11; A -0.786 ± 0.11; I -0.585 ± 0.14; T -0.7 ± 0.13; F -0.704 ± 0.15; L -0.648 ± 0.087; K -0.583 ± 0.13; R -0.809 ± 0.1; M -0.496 ± 0.12; S -0.626 ± 0.095; Q -0.568 ± 0.12; D -0.442 ± 0.12
Q10: R -0.234 ± 0.088; G -0.235 ± 0.086; C -0.459 ± 0.12; L -0.322 ± 0.083; V -0.296 ± 0.091; D -0.589 ± 0.23; P -0.48 ± 0.11; Y -0.69 ± 0.25; I -0.02 ± 0.12; A 0.031 ± 0.097; T -0.23 ± 0.12; M -0.246 ± 0.11; F -0.284 ± 0.17; E -0.183 ± 0.12; S -0.069 ± 0.09; N -0.436 ± 0.18; H -0.189 ± 0.17; W -0.381 ± 0.11
C14: M -0.713 ± 0.17; V -0.7 ± 0.12; G -0.559 ± 0.088; R -0.784 ± 0.089; S -0.49 ± 0.096; N -0.288 ± 0.18; D -0.779 ± 0.17; Y -0.554 ± 0.14; A -0.738 ± 0.11; I -0.663 ± 0.18; F -0.913 ± 0.2; T -0.728 ± 0.14; L -0.916 ± 0.11; P -0.765 ± 0.16; W -0.727 ± 0.12; Q -0.183 ± 0.16
P12: L -0.106 ± 0.088; M -0.081 ± 0.14; N -0.465 ± 0.19; W -0.723 ± 0.13; G -0.872 ± 0.096; E -0.439 ± 0.12; V -0.712 ± 0.11; T -0.5 ± 0.14; C -0.758 ± 0.14; I -0.31 ± 0.14; S -0.676 ± 0.12; R -0.398 ± 0.082; Y -0.063 ± 0.2; F -0.63 ± 0.16; H -0.579 ± 0.17; K -0.75 ± 0.16; Q 0.016 ± 0.12
R4: H -0.279 ± 0.23; A -0.035 ± 0.1; V 0.103 ± 0.1; D 0.045 ± 0.15; M 0.141 ± 0.12; W -0.54 ± 0.17; S -0.004 ± 0.1; F -0.15 ± 0.15; P -0.01 ± 0.13; Y -0.184 ± 0.17; K 0.186 ± 0.15; L -0.06 ± 0.095; T 0.148 ± 0.14; I -0.074 ± 0.16; G 0.125 ± 0.1; E 0.068 ± 0.12
C11: T -0.519 ± 0.16; M -0.784 ± 0.13; A -0.696 ± 0.11; E -0.799 ± 0.16; Q -0.915 ± 0.17; L -0.967 ± 0.11; K -0.964 ± 0.22; F -0.719 ± 0.18; R -0.81 ± 0.096; V -0.371 ± 0.1; S -0.55 ± 0.09; I -0.913 ± 0.18; H -0.495 ± 0.15; P -0.693 ± 0.17; G -0.643 ± 0.099; Y -0.827 ± 0.11; W -0.674 ± 0.12
R7: F -0.192 ± 0.15; D 0.159 ± 0.16; K -0.103 ± 0.12; A -0.09 ± 0.12; L -0.092 ± 0.094; C -0.493 ± 0.14; W -0.204 ± 0.11; Q -0.188 ± 0.14; P 0.294 ± 0.12; V 0.075 ± 0.1; H -0.435 ± 0.36; S 0.019 ± 0.091; G -0.036 ± 0.093; Y -0.214 ± 0.17; T -0.153 ± 0.13; I -0.17 ± 0.16; N -0.041 ± 0.16
G2: K -0.569 ± 0.23; Q -0.007 ± 0.17; R -0.413 ± 0.12; V -0.275 ± 0.098; D 0.186 ± 0.088; F -0.701 ± 0.38; S -0.213 ± 0.086; E 0.013 ± 0.12; W -0.79 ± 0.16; L -0.303 ± 0.11; A -0.403 ± 0.12
G13: R -0.719 ± 0.1; N -0.266 ± 0.11; H -0.884 ± 0.2; M -0.381 ± 0.11; W -0.708 ± 0.12; P 0.152 ± 0.11; E -0.353 ± 0.12; Y -0.393 ± 0.11; C -0.315 ± 0.086; A -0.219 ± 0.096; L -0.445 ± 0.09; T -0.455 ± 0.099; F -0.522 ± 0.11; D -0.313 ± 0.093; I -0.606 ± 0.13; Q -0.068 ± 0.15; K -0.678 ± 0.16
K1: M -0.337 ± 0.17; V -0.43 ± 0.31; E 0.47 ± 0.24; D -0.341 ± 0.28; Y -0.299 ± 0.33; S -0.232 ± 0.18; T -0.659 ± 0.21; R -0.285 ± 0.21; P -0.662 ± 0.44; G -0.676 ± 0.3
R3: Q 0.023 ± 0.13; W -0.518 ± 0.1; E -0.038 ± 0.13; V 0.11 ± 0.089; K 0.161 ± 0.18; M 0.056 ± 0.16; F 0.097 ± 0.17; I -0.281 ± 0.17; A -0.123 ± 0.089; G -0.091 ± 0.08; N 0.017 ± 0.18; C 0.012 ± 0.11; H -0.403 ± 0.25; Y -0.301 ± 0.25; D -0.185 ± 0.18
G9: T -0.653 ± 0.13; M -0.256 ± 0.12; V -0.726 ± 0.099; F -0.469 ± 0.1; R -0.55 ± 0.097; L -0.562 ± 0.086; Q -0.299 ± 0.13; P -0.738 ± 0.15; C -0.145 ± 0.18; H -0.39 ± 0.17; W -0.553 ± 0.13; Y -0.42 ± 0.15; A -0.519 ± 0.1; I -0.452 ± 0.13; E -0.866 ± 0.14; D -0.773 ± 0.093
R6: G -0.088 ± 0.087; K -0.143 ± 0.13; Y -0.207 ± 0.14; N 0.158 ± 0.12; L -0.014 ± 0.093; C -0.407 ± 0.12; V -0.204 ± 0.11; D 0.143 ± 0.11; F 0.1 ± 0.12; I 0.019 ± 0.12; W -0.064 ± 0.11; H 0.089 ± 0.13; E 0.138 ± 0.15; A 0.182 ± 0.1; M -0.171 ± 0.14; P 0.054 ± 0.095; T -0.179 ± 0.11; S 0.06 ± 0.086
S5: D -0.037 ± 0.14; M -0.236 ± 0.17; Y -0.459 ± 0.23; E -0.091 ± 0.14; K -0.093 ± 0.21; R -0.226 ± 0.098; L -0.132 ± 0.1; N -0.161 ± 0.24; H -0.25 ± 0.2; Q 0.07 ± 0.21; G -0.169 ± 0.084; T -0.24 ± 0.17; F 0.163 ± 0.15; C -0.644 ± 0.12; A -0.19 ± 0.11; I -0.604 ± 0.26; P -0.137 ± 0.14

Variants of: B2
Assay: as above
Settings: Homo sapiens

Abundance fitness, by site and new letter:
L65: M -0.185 ± 0.12; C -0.846 ± 0.37; I -0.513 ± 0.36; F -0.633 ± 0.47; S -0.58 ± 0.1; R -0.674 ± 0.13; Q -0.73 ± 0.15; G -0.935 ± 0.29; T -0.732 ± 0.37; K -0.211 ± 0.11; W -0.297 ± 0.098
W64: L -0.913 ± 0.16; M -0.83 ± 0.18; E -0.792 ± 0.23; Q -0.8 ± 0.34; G -0.77 ± 0.15; V -0.305 ± 0.12; S -0.757 ± 0.3; R -0.582 ± 0.16; H -0.778 ± 0.45; T -1.15 ± 0.42; P -0.746 ± 0.47; I -0.715 ± 0.29; A -0.737 ± 0.16
D69: T -0.314 ± 0.25; S -0.573 ± 0.32; E -0.183 ± 0.25; P -0.128 ± 0.047; L -0.436 ± 0.16
A68: C -0.485 ± 0.36; Y -0.176 ± 0.17; S -0.082 ± 0.14; N -0.163 ± 0.45; L -0.705 ± 0.27; Q -0.587 ± 0.32; G -0.62 ± 0.25; H -0.392 ± 0.45; M 0.303 ± 0.23; E -0.6 ± 0.23; R -0.248 ± 0.15
E67: G -0.084 ± 0.099; S 0.196 ± 0.23; V -0.321 ± 0.14; T -0.134 ± 0.26; A -0.032 ± 0.097; L 0.333 ± 0.2; K -0.029 ± 0.23; Q -0.227 ± 0.18; R -0.015 ± 0.12
K63: S -0.317 ± 0.066; N -0.261 ± 0.13; I -0.697 ± 0.14; W -0.658 ± 0.093; P -0.77 ± 0.13; F -0.149 ± 0.16; Q -0.066 ± 0.073; E -0.519 ± 0.13; Y -0.53 ± 0.12; M -0.435 ± 0.1; L -0.493 ± 0.059; H -0.189 ± 0.05; V -0.743 ± 0.093; G -0.074 ± 0.039
E66: T -0.132 ± 0.21; D 0.402 ± 0.26; K -0.123 ± 0.084; G -0.889 ± 0.33; N 0.122 ± 0.14; V -0.225 ± 0.12; Y -0.635 ± 0.31; F -0.127 ± 0.19; L -0.428 ± 0.12; C -0.046 ± 0.37; M 0.002 ± 0.098; I 0.075 ± 0.21; S -0.502 ± 0.35; H 0.082 ± 0.37; R -0.146 ± 0.17
